To fix the notation:
B1: Hammerhead Ribozyme (parent)
chain: ACCGGAUGUGCUUUCCGGUCUGAUGAGUCCGUGAGGACGAAACAG

In this data set the parent is B1. Briefly: self-cleavage, relative activity (ratio to wild type); higher = more cleavage; co-transcriptional.
In the case of A6G G45U, the self-cleavage came to 0.597.

G5U G39A: the self-cleavage was 0.339.

On to G5U G39C, for which the self-cleavage worked out at 0.306.

For G5U G39U, the self-cleavage is 0.33.

In the case of A6G U13C, the self-cleavage amounted to 0.722.

In the case of A6G U13A, the self-cleavage stood at 0.842.

For the variant A6G U13G, the self-cleavage was 0.778.

In the case of A6C C30A, the self-cleavage came to 0.588.

A6C C30U: the self-cleavage came out at 0.51.

Regarding A6C C30G, the self-cleavage was found to be 0.437.

On to G5U G45C, for which the self-cleavage was found to be 0.443.

For the variant G5U G45U, the self-cleavage was determined as 0.529.

For the variant G5U G45A, the self-cleavage was found to be 0.431.

Turning to G5U G36A, the self-cleavage was determined as 0.417.

Regarding G5U G36C, the self-cleavage amounted to 0.32.

Take G5U G36U: the self-cleavage came out at 0.327.

In the case of A6G U12C, the self-cleavage was 0.802.

Consider A6G U12G, for which the self-cleavage came out at 0.802.

Take A6G U12A: the self-cleavage turned out to be 0.819.

On to A6G C29A, for which the self-cleavage was 0.36.

As for A6G C29G, the self-cleavage was found to be 0.498.

Consider A6G C29U, for which the self-cleavage was 0.89.

As to A6G C30U, the self-cleavage amounted to 0.634.

For A6G C30G, the self-cleavage came to 0.594.

With A6G C30A, the self-cleavage amounted to 0.48.

With G5U G22U, the self-cleavage worked out at 0.304.

For the variant G5U G22C, the self-cleavage is 0.251.

On to A6G C15U, for which the self-cleavage stood at 0.811.

Turning to A6G C15A, the self-cleavage amounted to 0.707.

Consider A6G C15G, for which the self-cleavage was determined as 0.54.

For the variant A6G G33C, the self-cleavage worked out at 0.597.

Take A6G G33A: the self-cleavage was 0.844.

With A6G G33U, the self-cleavage was 0.863.

For the variant G5U U19G, the self-cleavage is 0.379.

G5U U19A: the self-cleavage came to 0.29.

For the variant G5U U19C, the self-cleavage stood at 0.396.

Take A6C A44U: the self-cleavage was found to be 0.36.

Regarding A6C A44G, the self-cleavage was 1.06.

Consider A6C A44C, for which the self-cleavage worked out at 0.391.

Consider A6C U21A, for which the self-cleavage is 0.475.

As to A6C U21G, the self-cleavage came to 0.415.

On to A6C U21C, for which the self-cleavage came to 0.389.

As to A6C G10C, the self-cleavage was found to be 0.515.

For A6C G10U, the self-cleavage was determined as 1.01.

Take A6C G10A: the self-cleavage was 0.68.

Turning to A6U A34C, the self-cleavage stood at 0.651.

Turning to A6U A34U, the self-cleavage worked out at 0.631.

With A6U A34G, the self-cleavage worked out at 0.786.

Regarding G5U U28C, the self-cleavage turned out to be 0.458.

With G5U U28A, the self-cleavage turned out to be 0.361.

For G5U U28G, the self-cleavage stood at 0.376.

In the case of A6C G25U, the self-cleavage is 0.219.

With A6C G25A, the self-cleavage was 0.286.

For A6C G25C, the self-cleavage amounted to 0.24.

In the case of A6G C20G, the self-cleavage stood at 0.236.

As for A6G C20A, the self-cleavage came out at 0.4.

Regarding A6G C20U, the self-cleavage came to 0.432.

Turning to A6C G22C, the self-cleavage amounted to 0.296.

Regarding A6C G22U, the self-cleavage came out at 0.39.

In the case of A6C G22A, the self-cleavage was determined as 0.29.

Take A6U C11G: the self-cleavage was found to be 0.827.

With A6U C11A, the self-cleavage was found to be 0.831.

As for A6U C11U, the self-cleavage was 0.607.

Regarding G5U G33C, the self-cleavage was 0.813.

Consider G5U G33A, for which the self-cleavage was found to be 0.913.

Regarding G5U G33U, the self-cleavage came out at 1.06.

Consider A6C C15A, for which the self-cleavage was found to be 0.761.

As to A6C C15G, the self-cleavage was 0.559.

As for A6C C15U, the self-cleavage is 0.659.

For the variant A6C A40C, the self-cleavage amounted to 0.386.

Turning to A6C A40G, the self-cleavage is 0.38.

Consider A6C A40U, for which the self-cleavage was 0.37.

For the variant A6U A37U, the self-cleavage was found to be 0.451.

Take A6U A37C: the self-cleavage worked out at 0.677.

On to A6U A37G, for which the self-cleavage amounted to 0.529.

Consider A6U C29G, for which the self-cleavage is 0.468.

For A6U C29A, the self-cleavage turned out to be 0.475.

As for A6U C29U, the self-cleavage was found to be 0.451.

As to A6G, the self-cleavage came to 0.806.

With A6C, the self-cleavage is 0.722.

For the variant A6U, the self-cleavage was 0.696.

As for A6C C43U, the self-cleavage amounted to 0.429.

Consider A6C C43G, for which the self-cleavage stood at 0.294.

Consider A6C C43A, for which the self-cleavage was 0.287.

As to A6U C15A, the self-cleavage was 0.741.

In the case of A6U C15G, the self-cleavage was 0.527.

In the case of A6U C15U, the self-cleavage was 0.708.

Take A6G A40C: the self-cleavage is 0.355.

In the case of A6G A40U, the self-cleavage was 0.247.

With A6G A40G, the self-cleavage stood at 0.213.

As for A6C U19C, the self-cleavage is 0.397.

Take A6C U19A: the self-cleavage is 0.265.

A6C U19G: the self-cleavage is 0.269.

A6G U21C: the self-cleavage was 0.54.

For A6G U21G, the self-cleavage amounted to 0.472.

A6G U21A: the self-cleavage is 0.393.

Take A6G A34G: the self-cleavage is 0.6.

Take A6G A34C: the self-cleavage came to 0.604.

On to A6G A34U, for which the self-cleavage came to 0.82.

In the case of A6C C11A, the self-cleavage stood at 0.669.

For the variant A6C C11G, the self-cleavage was 0.958.

Take A6C C11U: the self-cleavage turned out to be 0.592.

For A6G U7A, the self-cleavage turned out to be 1.09.

A6G U7G: the self-cleavage came out at 1.35.

For A6G U7C, the self-cleavage amounted to 1.29.

For A6C G8A, the self-cleavage stood at 0.783.

Turning to A6C G8U, the self-cleavage came out at 0.633.

With A6C G8C, the self-cleavage was 0.916.

Regarding A6U C30A, the self-cleavage turned out to be 0.649.

Consider A6U C30G, for which the self-cleavage was found to be 0.525.

In the case of A6C A23U, the self-cleavage amounted to 0.271.

Turning to A6C A23C, the self-cleavage was 0.333.

A6C A23G: the self-cleavage is 0.306.

On to A6C C29A, for which the self-cleavage was determined as 0.44.

Turning to A6C C29G, the self-cleavage was determined as 0.482.

Turning to A6C C29U, the self-cleavage was 0.695.

On to A6U C20G, for which the self-cleavage turned out to be 0.378.

A6U C20A: the self-cleavage came to 0.373.

Turning to A6U C20U, the self-cleavage turned out to be 0.454.

Turning to G5U U12A, the self-cleavage turned out to be 1.1.

With G5U U12G, the self-cleavage turned out to be 0.806.

In the case of G5U U12C, the self-cleavage worked out at 0.804.

In the case of A6G A44U, the self-cleavage worked out at 0.483.

Take A6G A44G: the self-cleavage is 1.08.

With A6G A44C, the self-cleavage turned out to be 0.523.

As to A6C G31U, the self-cleavage was 0.884.

Regarding A6C G31C, the self-cleavage was determined as 0.573.

Take A6C G31A: the self-cleavage is 0.778.

For A6C G36C, the self-cleavage came to 0.326.

On to A6C G36U, for which the self-cleavage is 0.34.

A6C G36A: the self-cleavage is 0.391.

Take A6C G33A: the self-cleavage worked out at 0.689.

With A6C G33C, the self-cleavage worked out at 0.472.

Take A6C G33U: the self-cleavage was 0.579.

For G5U U32C, the self-cleavage came to 0.822.

For G5U U32G, the self-cleavage was 0.367.

On to G5U U32A, for which the self-cleavage came to 0.795.

In the case of A6C C20A, the self-cleavage was found to be 0.291.

As to A6C C20U, the self-cleavage came out at 0.371.

On to A6C C20G, for which the self-cleavage was 0.335.

With A6U A41C, the self-cleavage came to 0.334.

As to A6U A41U, the self-cleavage stood at 0.282.

As for A6U A41G, the self-cleavage stood at 0.289.

As to A6G C38G, the self-cleavage is 0.448.

A6G C38A: the self-cleavage came to 0.454.

On to A6G C38U, for which the self-cleavage stood at 0.629.

Turning to A6G G25C, the self-cleavage amounted to 0.283.

In the case of A6G G25U, the self-cleavage was 0.194.

Turning to A6G G25A, the self-cleavage is 0.263.

As to A6G A42G, the self-cleavage worked out at 0.275.

Turning to A6G A42U, the self-cleavage was 0.219.

Consider A6G A42C, for which the self-cleavage worked out at 0.268.

With G5U G27U, the self-cleavage was 0.366.

With G5U G27C, the self-cleavage is 0.491.

For G5U G27A, the self-cleavage was determined as 0.504.

In the case of A6C U14C, the self-cleavage worked out at 0.495.

Regarding A6C U14G, the self-cleavage amounted to 0.508.

As for A6C U14A, the self-cleavage came to 0.536.

With A6G U28C, the self-cleavage amounted to 0.792.

As to A6G U28A, the self-cleavage came out at 0.468.

On to A6G U28G, for which the self-cleavage worked out at 0.461.

Turning to A6G A23U, the self-cleavage came out at 0.274.

In the case of A6G A23G, the self-cleavage is 0.272.

For A6G A23C, the self-cleavage was 0.277.

Regarding A6C A37C, the self-cleavage is 0.475.

Take A6C A37U: the self-cleavage is 0.449.

Take A6C A37G: the self-cleavage is 0.333.

These data come from the RNAGym collection of RNA variant scans (doi:10.7554/elife.80360).
